Experimental data reported in US20260317437 (published 2026).
Where a chain is given by its changes, count along the chain named. Numbers in names are those of the source.

B1: VH Y33A (antibody, V domains shown)
VH: EVQLVESGGGLVQPGGSLRLSCAASGFNIYYNAIHWVRQAPGKGLEWVAEFSPYSGSTYYADSVKGRFTISADTSKNTAYLQMNSLRAEDTAVYYCARSAAIVDWYDYFKGFDYWGQGTLVTVSS
VL: DIQMTQSPSSLSASVGDRVTITCRASQSVSSAVAWYQQKPGKAPKLLIYSASSLYSGVPSRFSGSRSGTDFTLTISSLQPEDFATYYCQQYGSYLYTFGQGTKVEIK
B2: VH Y30H (antibody, V domains shown)
VH: B1 VH with Y30H, A33Y
VL: B1 VL
B3: VH W100aL (antibody, V domains shown)
VH: B1 VH with A33Y, W105L
VL: B1 VL
B4: VH Y31H (antibody, V domains shown)
VH: B1 VH with Y31H, A33Y
VL: B1 VL
B5: VH Y100bQ (antibody, V domains shown)
VH: B1 VH with A33Y, Y106Q
VL: B1 VL
B6: VH W100aF (antibody, V domains shown)
VH: B1 VH with A33Y, W105F
VL: B1 VL
B7: VL Y94K (antibody, V domains shown)
VH: B1 VH with A33Y
VL: B1 VL with Y94K
B8: VH W100aV (antibody, V domains shown)
VH: B1 VH with A33Y, W105V
VL: B1 VL
B9: VH Y100bK (antibody, V domains shown)
VH: B1 VH with A33Y, Y106K
VL: B1 VL
B10: VL Y91A (antibody, V domains shown)
VH: B1 VH with A33Y
VL: B1 VL with Y91A
B11: anti-GCGR IgG1 parent (antibody, V domains shown)
VH: B1 VH with A33Y
VL: B1 VL
B12: VH Y100bH (antibody, V domains shown)
VH: B1 VH with A33Y, Y106H
VL: B1 VL
B13: VH Y100bR (antibody, V domains shown)
VH: B1 VH with A33Y, Y106R
VL: B1 VL
B14: VH W100aA (antibody, V domains shown)
VH: B1 VH with A33Y, W105A
VL: B1 VL
B15: VH Y31W (antibody, V domains shown)
VH: B1 VH with Y31W, A33Y
VL: B1 VL
B16: VH Y31R (antibody, V domains shown)
VH: B1 VH with Y31R, A33Y
VL: B1 VL
B17: VH Y31S (antibody, V domains shown)
VH: B1 VH with Y31S, A33Y
VL: B1 VL
B18: VH Y31A (antibody, V domains shown)
VH: B1 VH with Y31A, A33Y
VL: B1 VL
B19: VH Y31E (antibody, V domains shown)
VH: B1 VH with Y31E, A33Y
VL: B1 VL
B20: VH Y31N (antibody, V domains shown)
VH: B1 VH with Y31N, A33Y
VL: B1 VL
B21: VH Y31I (antibody, V domains shown)
VH: B1 VH with Y31I, A33Y
VL: B1 VL
B22: VH W100aR (antibody, V domains shown)
VH: B1 VH with A33Y, W105R
VL: B1 VL
B23: VH Y31K (antibody, V domains shown)
VH: B1 VH with Y31K, A33Y
VL: B1 VL
B24: VH Y31D (antibody, V domains shown)
VH: B1 VH with Y31D, A33Y
VL: B1 VL
B25: VH W100aK (antibody, V domains shown)
VH: B1 VH with A33Y, W105K
VL: B1 VL
B26: VH Y59A (antibody, V domains shown)
VH: B1 VH with A33Y, Y59A
VL: B1 VL
B27: VL Y96A (antibody, V domains shown)
VH: B1 VH with A33Y
VL: B1 VL with Y96A
B28: VH F51A (antibody, V domains shown)
VH: B1 VH with A33Y, F51A
VL: B1 VL
B29: VH Y54A (antibody, V domains shown)
VH: B1 VH with A33Y, Y54A
VL: B1 VL
B30: VL Y55A (antibody, V domains shown)
VH: B1 VH with A33Y
VL: B1 VL with Y55A

These binders were tested against T1, GCGR extracellular domain (human, UniProt P47871) (assay: SPR).
T1 sequence (P47871 26-477): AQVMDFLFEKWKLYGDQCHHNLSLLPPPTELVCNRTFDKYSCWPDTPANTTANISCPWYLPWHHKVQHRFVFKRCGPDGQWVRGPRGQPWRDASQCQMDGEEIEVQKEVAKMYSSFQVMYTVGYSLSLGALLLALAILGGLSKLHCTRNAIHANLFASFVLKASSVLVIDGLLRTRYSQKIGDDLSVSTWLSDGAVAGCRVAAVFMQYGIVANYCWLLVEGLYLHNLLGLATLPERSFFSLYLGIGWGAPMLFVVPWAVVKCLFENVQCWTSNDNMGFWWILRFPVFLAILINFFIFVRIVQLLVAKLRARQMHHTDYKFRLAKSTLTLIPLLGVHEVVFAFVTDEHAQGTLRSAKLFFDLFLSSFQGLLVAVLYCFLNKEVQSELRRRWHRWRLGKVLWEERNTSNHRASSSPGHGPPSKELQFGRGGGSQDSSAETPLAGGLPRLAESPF

Binder | Kd [nM]
B1 | 267
B2 | 5.14
B3 | 5.24
B4 | 17.5
B5 | 6.08
B6 | 5.2
B7 | 1.6
B8 | 5.88
B9 | 7.75
B10 | 98.5
B11 | 2.53
B12 | 2.9
B13 | 7.08
B14 | 16.3

Biological target: T1, GCGR extracellular domain
Experiment: SPR
Remark: another data set of the same source

Binder | binding result
B15 | no binding
B16 | no binding
B17 | no binding
B18 | no binding
B19 | no binding
B20 | no binding
B21 | no binding
B22 | no binding
B23 | no binding
B24 | no binding
B25 | no binding

Biological target: T1, GCGR extracellular domain
Experiment: SPR
Remark: another data set of the same source

Binder | Kd [nM]
B26 | 0.32
B1 | 53
B18 | 206
B27 | 0.93
B28 | 1.5
B29 | 46
B30 | 0.74
B10 | 0.84
B11 | 0.61
B14 | 11

Biological target: T1, GCGR extracellular domain
Experiment: SPR
Remark: another data set of the same source

Binder | Kd [nM]
B2 | 5.14
B3 | 5.24
B5 | 6.08
B6 | 5.2
B7 | 1.6
B8 | 5.88
B9 | 7.75
B11 | 2.53
B12 | 2.9
B13 | 7.08
